Measured values taken from US20260201008A1, “SECRETIN-DERIVED GLP1R SELECTIVE AGONISTS” (GUBRA A/S, priority 2023, published 2026).
Numbered stars: 1 amine (or outer) side, 2 acyl side, 3 side chain; on linkers, the order of the positions; unused ones are H or OH. Square brackets hold non-standard residues; d marks the D form. Side chains are listed from the residue outwards. Ends that are not written are not given here. * marks the point of attachment. C20 diacid = O=C(O)CCCCCCCCCCCCCCCCCCC(=O)*; γGlu = O=C(O)[C@H](CCC(=O)[*:2])N[*:1]; AEEA = NCCOCCOCC(=O)O; Aib = CC(C)(N)C(=O)O

B1: SEQ ID NO: 93 (peptide)
peptide: H[Aib]EGTFTSDVSTLK([AEEA-AEEA-γGlu-C20 diacid])ETAATQRFLEHLV-NH2
modifications: not fully specified
B2: SEQ ID NO: 94 (peptide)
peptide: H[Aib]EGTFTSDVSYLKE[Aib]AAQQRFLEHLV-NH2
modifications: not fully specified (residue 14)
B3: SEQ ID NO: 92 (peptide)
peptide: H[Aib]EGTFTSDVSVLK([AEEA-AEEA-γGlu-C20 diacid])EFAASQRFLEHLV-NH2
B4: SEQ ID NO: 95 (peptide)
peptide: H[Aib]EGTFTSDVSYLKEEAAEQRFLEHLV-NH2
modifications: not fully specified (residue 14)
B5: SEQ ID NO: 107 (peptide)
peptide: H[Aib]EGTFTSD[Aib]S[Aib]LLEGAALQRFIQWLV-NH2
modifications: N-terminus assumed
SMILES: CC[C@H](C)[C@H](NC(=O)[C@H](Cc1ccccc1)NC(=O)[C@H](CCCNC(=N)N)NC(=O)[C@H](CCC(N)=O)NC(=O)[C@H](CC(C)C)NC(=O)[C@H](C)NC(=O)[C@H](C)NC(=O)CNC(=O)[C@H](CCC(=O)O)NC(=O)[C@H](CC(C)C)NC(=O)[C@H](CC(C)C)NC(=O)C(C)(C)NC(=O)[C@H](CO)NC(=O)C(C)(C)NC(=O)[C@H](CC(=O)O)NC(=O)[C@H](CO)NC(=O)[C@@H](NC(=O)[C@H](Cc1ccccc1)NC(=O)[C@@H](NC(=O)CNC(=O)[C@H](CCC(=O)O)NC(=O)C(C)(C)NC(=O)[C@@H](N)Cc1c[nH]cn1)[C@@H](C)O)[C@@H](C)O)C(=O)N[C@@H](CCC(N)=O)C(=O)N[C@@H](Cc1c[nH]c2ccccc12)C(=O)N[C@@H](CC(C)C)C(=O)N[C@H](C(N)=O)C(C)C
B6: SEQ ID NO: 99 (peptide)
peptide: H[Aib]EGTFTSDVSELKELAAQQRFLEHLV-NH2
modifications: not fully specified (residue 14)
B7: SEQ ID NO: 100 (peptide)
peptide: H[Aib]EGTFTSDVSTLK([AEEA-AEEA-γGlu-C20 diacid])EFAAQQRFLEHLV-NH2
modifications: also: K14 lipid also given as C18DA[γE][OEG][OEG]-
B8: SEQ ID NO: 101 (peptide)
peptide: H[Aib]EGTFTSDVSVLK([AEEA-AEEA-γGlu-C20 diacid])ETAA[Aib]QRFLEHLV-NH2
modifications: also: K14 lipid also given as C18DA[γE][OEG][OEG]-
B9: SEQ ID NO: 88 (peptide)
peptide: H[Aib]EGTFTSDVSTLK([AEEA-AEEA-γGlu-C20 diacid])E[Aib]AAQQRFLEHLV-NH2
B10: SEQ ID NO: 106 (peptide)
peptide: H[Aib]EGTFTSD[Aib]SYLLEGAALQRFIQWLV-NH2
modifications: N-terminus assumed
SMILES: CC[C@H](C)[C@H](NC(=O)[C@H](Cc1ccccc1)NC(=O)[C@H](CCCNC(=N)N)NC(=O)[C@H](CCC(N)=O)NC(=O)[C@H](CC(C)C)NC(=O)[C@H](C)NC(=O)[C@H](C)NC(=O)CNC(=O)[C@H](CCC(=O)O)NC(=O)[C@H](CC(C)C)NC(=O)[C@H](CC(C)C)NC(=O)[C@H](Cc1ccc(O)cc1)NC(=O)[C@H](CO)NC(=O)C(C)(C)NC(=O)[C@H](CC(=O)O)NC(=O)[C@H](CO)NC(=O)[C@@H](NC(=O)[C@H](Cc1ccccc1)NC(=O)[C@@H](NC(=O)CNC(=O)[C@H](CCC(=O)O)NC(=O)C(C)(C)NC(=O)[C@@H](N)Cc1c[nH]cn1)[C@@H](C)O)[C@@H](C)O)C(=O)N[C@@H](CCC(N)=O)C(=O)N[C@@H](Cc1c[nH]c2ccccc12)C(=O)N[C@@H](CC(C)C)C(=O)N[C@H](C(N)=O)C(C)C
B11: SEQ ID NO: 102 (peptide)
peptide: H[Aib]EGTFTSDVSTLK([AEEA-AEEA-γGlu-C20 diacid])EEAATQRFLEHLV-NH2
modifications: also: K14 lipid also given as C18DA[γE][OEG][OEG]-
B12: SEQ ID NO: 104 (peptide)
peptide: H[Aib]EGTFTSD[Aib]SRLLEGAALQRFIQWLV-NH2
modifications: N-terminus assumed
SMILES: CC[C@H](C)[C@H](NC(=O)[C@H](Cc1ccccc1)NC(=O)[C@H](CCCNC(=N)N)NC(=O)[C@H](CCC(N)=O)NC(=O)[C@H](CC(C)C)NC(=O)[C@H](C)NC(=O)[C@H](C)NC(=O)CNC(=O)[C@H](CCC(=O)O)NC(=O)[C@H](CC(C)C)NC(=O)[C@H](CC(C)C)NC(=O)[C@H](CCCNC(=N)N)NC(=O)[C@H](CO)NC(=O)C(C)(C)NC(=O)[C@H](CC(=O)O)NC(=O)[C@H](CO)NC(=O)[C@@H](NC(=O)[C@H](Cc1ccccc1)NC(=O)[C@@H](NC(=O)CNC(=O)[C@H](CCC(=O)O)NC(=O)C(C)(C)NC(=O)[C@@H](N)Cc1c[nH]cn1)[C@@H](C)O)[C@@H](C)O)C(=O)N[C@@H](CCC(N)=O)C(=O)N[C@@H](Cc1c[nH]c2ccccc12)C(=O)N[C@@H](CC(C)C)C(=O)N[C@H](C(N)=O)C(C)C
B13: SEQ ID NO: 105 (peptide)
peptide: H[Aib]EGTFTSD[Aib]SGLLEGAALQRFIQWLV-NH2
modifications: N-terminus assumed
SMILES: CC[C@H](C)[C@H](NC(=O)[C@H](Cc1ccccc1)NC(=O)[C@H](CCCNC(=N)N)NC(=O)[C@H](CCC(N)=O)NC(=O)[C@H](CC(C)C)NC(=O)[C@H](C)NC(=O)[C@H](C)NC(=O)CNC(=O)[C@H](CCC(=O)O)NC(=O)[C@H](CC(C)C)NC(=O)[C@H](CC(C)C)NC(=O)CNC(=O)[C@H](CO)NC(=O)C(C)(C)NC(=O)[C@H](CC(=O)O)NC(=O)[C@H](CO)NC(=O)[C@@H](NC(=O)[C@H](Cc1ccccc1)NC(=O)[C@@H](NC(=O)CNC(=O)[C@H](CCC(=O)O)NC(=O)C(C)(C)NC(=O)[C@@H](N)Cc1c[nH]cn1)[C@@H](C)O)[C@@H](C)O)C(=O)N[C@@H](CCC(N)=O)C(=O)N[C@@H](Cc1c[nH]c2ccccc12)C(=O)N[C@@H](CC(C)C)C(=O)N[C@H](C(N)=O)C(C)C
B14: SEQ ID NO: 11 (peptide)
peptide: H[Aib]EGTFTSDVSTLK([AEEA-AEEA-γGlu-C20 diacid])ELAAAQRFLEHLV-NH2
modifications: also: K14 lipidated with C20DA[γE][OEG][OEG]- or C18DA[γE][OEG][OEG]-
B15: SEQ ID NO: 10 (peptide)
peptide: H[Aib]EGTFTSDVSRLK([AEEA-AEEA-γGlu-C20 diacid])ELAA[Aib]QRFLEHLV-NH2
modifications: also: K14 lipid also given as C18DA[γE][OEG][OEG]-
B16: SEQ ID NO: 90 (peptide)
peptide: H[Aib]EGTFTSDVSVLK([AEEA-AEEA-γGlu-C20 diacid])EEAAQQRFLEHLV-NH2
B17: SEQ ID NO: 103 (peptide)
peptide: H[Aib]EGTFTSD[Aib]SYLK([AEEA-AEEA-γGlu-C20 diacid])EEA[Aib]LQRFLEHLV-NH2
modifications: also: K14 lipid also given as C18DA[γE][OEG][OEG]-
B18: SEQ ID NO: 97 (peptide)
peptide: H[Aib]EGTFTSDVSELKEEAA[Aib]QRFLEHLV-NH2
modifications: not fully specified (residue 14)
B19: SEQ ID NO: 96 (peptide)
peptide: H[Aib]EGTFTSDVSTLKEEAAAQRFLEHLV-NH2
modifications: not fully specified (residue 14)
B20: SEQ ID NO: 87 (peptide)
peptide: H[Aib]EGTFTSDVSELK([AEEA-AEEA-γGlu-C20 diacid])EEAASQRFLEHLV-NH2
B21: SEQ ID NO: 91 (peptide)
peptide: H[Aib]EGTFTSDVSFLK([AEEA-AEEA-γGlu-C20 diacid])EFAASQRFLEHLV-NH2
B22: SEQ ID NO: 89 (peptide)
peptide: H[Aib]EGTFTSDVSTLK([AEEA-AEEA-γGlu-C20 diacid])EFAAEQRFLEHLV-NH2
B23: SEQ ID NO: 98 (peptide)
peptide: H[Aib]EGTFTSDVSELKEEAAAQRFLEHLV-NH2
modifications: not fully specified (residue 14)

Tests used:
[1] = target: human GLP-1 receptor (hGLP1R) (human, UniProt P43220 24-463); assay: cell-based or functional assay
[2] = target: human secretin receptor (hSCTR) (human, UniProt P47872 23-440); assay: cell-based or functional assay
Chain of human secretin receptor (hSCTR) (P47872 23-440): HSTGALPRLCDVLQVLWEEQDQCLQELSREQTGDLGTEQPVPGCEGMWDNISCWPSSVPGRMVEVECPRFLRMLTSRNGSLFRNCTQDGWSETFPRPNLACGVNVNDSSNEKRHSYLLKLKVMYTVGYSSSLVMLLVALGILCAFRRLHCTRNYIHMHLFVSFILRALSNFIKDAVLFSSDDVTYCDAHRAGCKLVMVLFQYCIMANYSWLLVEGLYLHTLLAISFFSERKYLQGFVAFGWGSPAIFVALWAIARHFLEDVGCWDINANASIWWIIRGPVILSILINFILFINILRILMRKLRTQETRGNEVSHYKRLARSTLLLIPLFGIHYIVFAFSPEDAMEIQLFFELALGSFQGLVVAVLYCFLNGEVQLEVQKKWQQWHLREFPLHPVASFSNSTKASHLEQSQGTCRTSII

Row | Binder | pEC50 hGLPR1 [1] | pEC50 hSCTR [2]
1 | B1 | 11 -log M | 6.5 -log M
2 | B2 | 11 -log M | 6 -log M
3 | B3 | 10.1 -log M | 5.8 -log M
4 | B4 | 10.7 -log M | 4.8 -log M
5 | B5 | 9.8 -log M | 6 -log M
6 | B6 | 10.8 -log M | 6.1 -log M
7 | B7 | 9.9 -log M | 6.1 -log M
8 | B8 | 9.7 -log M | 6 -log M
9 | B9 | 11.4 -log M | 6.8 -log M
10 | B10 | 10.8 -log M | 5.8 -log M
11 | B11 | 11 -log M | 7.1 -log M
12 | B12 | 9.9 -log M | 6.5 -log M
13 | B13 | 10 -log M | 5.8 -log M
14 | B14 | 10.3 -log M | 6.2 -log M
15 | B15 | 9.7 -log M | 6.3 -log M
16 | B16 | 10.5 -log M | 5.8 -log M
17 | B17 | 11.1 -log M | 5 -log M
18 | B18 | 11 -log M | 5.8 -log M
19 | B19 | 10.9 -log M | 6.4 -log M
20 | B20 | 10.4 -log M | 5.8 -log M
21 | B21 | 9.5 -log M | 4.5 -log M
22 | B22 | 10.7 -log M | 5.7 -log M
23 | B23 | 10.6 -log M | 5.9 -log M
